From patent publication US10100120B2, “Antibody which specifically binds to human CRTH2” (KYOWA HAKKO KIRIN CO., LTD, priority 2015, dated 2018)

T1: human CRTH2 (Homo sapiens, UniProt Q9Y5Y4)
T1 construct: expressed in transfected cells
T1 sequence (Q9Y5Y4 1-395): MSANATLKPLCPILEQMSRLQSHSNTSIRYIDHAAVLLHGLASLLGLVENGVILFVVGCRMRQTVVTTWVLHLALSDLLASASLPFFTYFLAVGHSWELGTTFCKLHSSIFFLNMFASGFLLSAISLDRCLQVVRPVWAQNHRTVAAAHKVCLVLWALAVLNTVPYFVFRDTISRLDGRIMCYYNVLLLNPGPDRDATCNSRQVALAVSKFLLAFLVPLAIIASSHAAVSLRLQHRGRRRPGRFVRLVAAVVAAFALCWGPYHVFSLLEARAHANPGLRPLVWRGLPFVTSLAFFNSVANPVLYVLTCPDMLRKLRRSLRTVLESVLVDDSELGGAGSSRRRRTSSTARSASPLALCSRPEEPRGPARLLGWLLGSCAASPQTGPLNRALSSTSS


Experiments:
human CRTH2 = biological target: T1, human CRTH2; assay: ELISA reactivity against membrane fractions of human CRTH2-expressing CHO/DG44 cells with GTPγS or GDP treatment; format: binding; conditions: HRP-labeled antibody, FIG. 19
Description: Humanized Lym2 antibody LV0HV1 and hu19A2 v52 were directly labeled with HRP using Peroxidase Labeling Kit-NH2 (Dojindo Molecular Technologies, Inc.) according to the attached document and diluted to 1 mg/mL with D-PBS (−) (NACALAI TESQUE, Inc.).
The human CRTH2-expressing CHO/DG44 cells established in Example 1 were peeled using 0.02% EDTA solution (NACALAI TESQUE, Inc.) and the cells were washed with D-PBS (−) cooled to 4° C. The membrane fractions were prepared using Minute Plasma Membrane Protein Isolation Kit (Invent Biotechnologies) according to the attached document.
50 mM Tris-HCl buffer pH 7.4 (NACALAI TESQUE, Inc.) to which 50 mM HEPES (GIBCO Inc.), 5 mM MgCl2 (NACALAI TESQUE, Inc.), 100 mM NaCl (NACALAI TESQUE, Inc.), and 1 mM EDTA (Invitrogen) were added (hereinafter, referred to as an ELISA reaction solution) was added to the membrane fractions prepared in (2) to have a concentration of 1 mg/mL, and the mixture was added to PROTEOSAVE 1.5 mL Microtubes (Sumitomo Bakelite Co., Ltd.) at 50 μL/tube.
Next, an ELISA reaction solution to which 500 μM GTPγS (Roche Diagnostics K.K.) or 500 μM GDP (Sigma-Aldrich Co. LLC) was added was added to the microtubes at 50 μL/tube for incubation at 30° C. for 1 hour. […]
The absorbance at 480 nm was measured by SPECTRA max 340PC and the obtained result was analyzed using Graphpad Prism (ver. 6.05). […]

human eosinophils = assay: Agonist activity using shape change of human eosinophils as index (Example 20); format: cell-based; conditions: 0 to 10 μg/mL, 1 hour; FIG. 17
Description: In the same experimental system as in Example 19 described above, rat anti-human CRTH2 antibody Lym2 at each final concentration of 0, 0.01, 0.1, 1, and 10 μg/mL was added and a reaction was performed for 1 hour and shape change of eosinophils was analyzed.

reactivity with respect to membrane fractions at GDP treatment compared to GTPγS treatment (human CRTH2) | Molecule | shape change of eosinophils caused by antibody (agonist activity) (human eosinophils)
not changed | LV0HV1: humanized Lym2 antibody, VL LV0 (SEQ ID NO: 33), VH HV1 (SEQ ID NO: 51) (antibody, V domains shown) VH: EVQLVESGGGVVQPGRSLRLSCAASGFTFSNYYMAWVRQAPGKGLEWVATISYDGSSTYYRDSVKGRFTISRDNAKNSLYLQMNSLRAEDTATYYCARHRGYYYSGAGYFDYWGQGTMVTVSS VL: DIVMTQTPLSLPVTPGESASISCRSSQSLEYSDGYTYLEWYLQKPGQSPQVLIYGVSNRFSGVPDRFSGSGSGTDFTLKISRVEAEDVGVYYCFQATHDPLTFGQGTKLEIK | 
 | Lym2 antibody: rat anti-human CRTH2 monoclonal antibody from hybridoma Lym2, rat IgG2b; VH SEQ ID NO: 17, VL SEQ ID NO: 19 (antibody, listed as Rattus norvegicus, V domains shown) VH: EVQLVESGGGLVQPGRSMKLSCAASGFTFSNYYMAWVRQAPKKGLEWVATISYDGSSTYYRDSVKGRFTISRDNAKSTLYLQMDSLRSEDTATYYCARHRGYYYSGAGYFDYWGQGVMVTVSS VL: DVVLTQTPVSLSVTLGDQASISCRSSQSLEYSDGYTYLEWYLQKPGQSPQVLIYGVSNRFSGVPDRFIGSGSGTDFTLKISRVEPEDLGVYYCFQATHDPLTFGSGTKLEIK | doesn't cause the shape change
